Reference: patent US20240336681A1 (LUDWIG MAXIMILIANS UNIVERSIT T M NCHEN, published 2024)
Substitutions are numbered along the chain they refer to.

B1: MSL-745 (bispecific antibody, part only; not given: anti-mesothelin IgG1 chains and linkers, V domains shown, not shown: another chain or arm of the molecule; large carriers; small tags and cut ends)
VH: QVELVQSGPEVKKPGSSVKVSCKASGYTFPSYDINWVRQRPGQCLEWMGGIYPRSGSPKYNEKFKGRVTITADTSTSTAYMELHSLRSEDTAVYYCARSVYYGTQFAYWGQGTLVTVSA
VL: DIVLTQSPSSLAVSLGERVTMSCKSSQSLLNSRTRKNYLAWYQQKPGQPPKLLIYWASTRDSGVPDRFSGSGSGTDFTLTISSLQAEDVAVYYCQQSFNLVTFGCGTKLEIK
B2: 2D6-022 (bispecific antibody, part only; not given: linkers and anti-TAA IgG1 chains, V domains shown, not shown: another chain or arm of the molecule; large carriers; small tags and cut ends)
VH: B1 VH with C44G, G50W, S55D
VL: B1 VL with Q95K, C105G
B3: 2D6-031 (bispecific antibody, part only; not given: linkers and anti-TAA IgG1 chains, V domains shown, not shown: another chain or arm of the molecule; large carriers; small tags and cut ends)
VH: QVQLVESGGGLVQPGGSLRLSCAASGYTFPSYDINWVRQAPGKGLEWVGWIYPRDGSPKYNEKFKGRFTISADTSKNTAYLQMNSLRAEDTAVYYCARSVYYGTQFAYWGQGTLVTVSS
VL: DIQMTQSPSSLSASVGDRVTITCKSSQSLLNSRTRKNYLAWYQQKPGKAPKLLIYWASTRDSGVPSRFSGSGSGTDFTLTISSLQPEDFATYYCKQSFNLVTFGQGTKVEIK
B4: 2D6-032 (bispecific antibody, part only; not given: linkers and anti-TAA IgG1 chains, V domains shown, not shown: another chain or arm of the molecule; large carriers; small tags and cut ends)
VH: B3 VH
VL: B3 VL with Q3V, S66D
B5: 2D6-056 (bispecific antibody, part only; not given: linkers and anti-TAA IgG1 chains, V domains shown, not shown: another chain or arm of the molecule; large carriers; small tags and cut ends)
VH: B1 VH with C44G
VL: B1 VL with C105G
B6: 2D6-059 (bispecific antibody, part only; not given: linkers and anti-TAA IgG1 chains, V domains shown, not shown: another chain or arm of the molecule; large carriers; small tags and cut ends)
VH: B1 VH
VL: B1 VL
B7: 2D6-096 (scFv, V domains shown, not shown: small tags and cut ends)
VH: B3 VH with P30T
VL: B3 VL
notes: Standalone scFv; also called anti-CD47 scFv (2D6-096); VH3/VL3

What was measured:
[1] = target: recombinant C-terminally His-tagged human CD47 (extracellular domain) (human) (UniProt Q08722); assay: SPR, Biacore X100; construct captured by anti-human Fc on CM5 chip, human CD47 extracellular domain as analyte, 1:1 fit
Sequence of recombinant C-terminally His-tagged human CD47 (extracellular domain) (human) (Q08722 19-141): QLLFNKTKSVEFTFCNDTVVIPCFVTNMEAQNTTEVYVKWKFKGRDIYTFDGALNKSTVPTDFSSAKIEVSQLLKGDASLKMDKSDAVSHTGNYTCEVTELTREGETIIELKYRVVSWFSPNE

[2] = target: recombinant C-terminally His-tagged human CD47 (extracellular domain) (human) (UniProt Q08722); assay: SPR, Biacore X100; analyte hCD47 31.25 to 2000 nM
[3] = target: recombinant C-terminally His-tagged human CD47 (extracellular domain) (human) (UniProt Q08722); assay: SPR, Biacore X100; construct captured by anti-human Fc on a CM5 chip, CD47 extracellular domain as analyte, 1:1 fit
[4] = target: recombinant C-terminally His-tagged human CD47 (extracellular domain) (human) (UniProt Q08722); assay: SPR (affinity to CD47 as measured by SPR)
[5] = target: T1, recombinant C-terminally His-tagged human CD47 (extracellular domain) (human, UniProt Q08722 19-141); assay: SPR, Biacore X100; format for the scFv not described
T1 construct: also called recombinantly expressed human CD47 extracellular domain
T1 sequence (Q08722 19-141): as above

[6] = target: T1, recombinant C-terminally His-tagged …; assay: SPR, Biacore X100

| Binder | Kd [1] [µM] | koff [3] [s⁻¹] | kon [3] [M⁻¹ s⁻¹] | further results |
| --- | --- | --- | --- | --- |
| B1 | 0.578 | – | – | koff [2]: 0.396 s⁻¹; kon [2]: 685000 M⁻¹ s⁻¹ |
| B2 | 0.106 | 0.07 | 660000 | – |
| B3 | 0.138 | 0.14 | 990000 | – |
| B4 | 0.141 | 0.13 | 960000 | – |
| B5 | – | – | – | Kd [4]: 0.659 µM |
| B6 | – | – | – | Kd [4]: 0.568 µM |
| B7 | – | – | – | Kd [5]: 0.02 µM; koff [6]: 0.00163 s⁻¹; kon [6]: 81500 M⁻¹ s⁻¹ |
